Test results from PMC2724296 (Nucleic Acids Research, 2009).
Substitutions are numbered along the chain they refer to. Each block holds one molecule with its values, some of them ahead of it.

Legend:
ST1710 [1] = target: T1, ST1710 (Sulfurisphaera tokodaii, UniProt Q96ZY1); experiment: differential scanning calorimetry; assay type: binding
T1 sequence (Q96ZY1 1-146): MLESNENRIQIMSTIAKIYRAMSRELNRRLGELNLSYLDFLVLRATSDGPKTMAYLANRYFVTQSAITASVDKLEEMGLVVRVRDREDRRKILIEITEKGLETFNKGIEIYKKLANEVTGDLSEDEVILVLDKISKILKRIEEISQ

ST1710 [2] = target: T2, ST1710 (Sulfolobus tokodaii strain 7, UniProt Q96ZY1 1-146); experiment: crystal structure
T2 sequence: T1 sequence (Q96ZY1 1-146)

ST1710 R89A = target: T3, ST1710 R89A (Sulfolobus tokodaii strain 7, UniProt Q96ZY1 1-146, R89A); experiment: EMSA
T3 sequence: T1 sequence (Q96ZY1 1-146) with R89A

ST1710 R90A = target: T4, ST1710 R90A (Sulfolobus tokodaii strain 7, UniProt Q96ZY1 1-146, R90A); experiment: EMSA
T4 sequence: T1 sequence (Q96ZY1 1-146) with R90A

ST1710 K91A = target: T5, ST1710 K91A (Sulfolobus tokodaii strain 7, UniProt Q96ZY1 1-146, K91A); experiment: EMSA
T5 sequence: T1 sequence (Q96ZY1 1-146) with K91A

Kd (ST1710 [1]): 20 ± 4.9 mM
Molecule: O=C(O)c1ccccc1O [sodium salicylate]

B1: 30-mer putative st1710 promoter duplex (dsDNA)
DNA 1: AATAATGTCATTGTTAACAATAGCAAAAAT
DNA 2: ATTTTTGCTATTGTTAACAATGACATTATT
binding result (ST1710 [2]): binds
binding result (ST1710 R89A): no binding
binding result (ST1710 R90A): no binding
binding result (ST1710 K91A): no binding
